Source: patent US20250205358A1, “PHOTOACTIVATABLE NANOPARTICLES AND USES THEREOF AS AGENTS FOR IMMUNOTHERAPY COMBINATIONS” (Board of Regents, The University of Texas System, priority 2023, published 2025)

B1: mIFN-γ: mouse Interferon Gamma Protein (Sino Biological) (protein, UniProt P01580 23-155, looked up)
Interferon gamma: HGTVIESLESLNNYFNSSGIDVEEKSLFLDIWRNWQKDGDMKILQSQIISFYLRLFEVLKDNQAISNNISVIESHLITTFFSNSKAKKDAFMSIAKFEVNNPQVQRQAFNELIRVVHQLLPESSLRKRKRSRC

Tests used:
[1] = tested on: PDAC; details: PDAC patients, standard of care; cited from earlier work
[2] = tested on: PD-L1; assay: Fold increase in PD-L1 expression with mIFN-γ (flow cytometry); format: cell-based, murine; details: 40 ng/ml, 24 h
Procedure: Fold increase in PD-L1 expression and binding specificity of iTPALs: Confluent AT84, LLC, MC38, ID8, CT1BA5 and BMFA3 cells were washed in PBS, trypsinized, and collected in their respective media. The cells were counted and diluted to seed 1.5×10^5 cells per well in a 6 well plate (Corning) overnight. The next day, the media was replaced with fresh media containing 40 ng/ml of mIFN-γ and incubated for an additional 24 h. The cells were then trypsinized, dispersed in their respective media and counted using a cell counter (Bio-Rad). Cells were diluted in their respective media to obtain a concentration of 5×10^5 cells/ml. Then, 100 μl of the counted cells were placed in the 1.5 ml microcentrifuge tubes. To calculate the fold increase in PD-L1 expression, 100 μl of 40 µg/ml α-PD-L1 equivalent of α-PD-L1-AF488 were then added to the cells whereas to monitor the binding specificity of iTPALs (17α), 100 μl of 500 nM BPD-PC equivalent of either 100 μl PALs or TPALs (17α) added to the cells and incubated at 37° C. for 30 mins in the dark. The cells were then pelleted by […] for 5 mins at 1000×g, and the supernatants containing free unbound PALs and iTPALs (17α) were discarded. The cells were then resuspended in 300 μl of FACS buffer and transferred into flow cytometry tubes. For each condition, 10,000 cells were analyzed using a BD Fortessa flow cytometry analyzer with a 405 nm laser/710 nm bandpass detector pair for BPD-PC fluorescence and a 488 nm laser/530 nm detector pair for AF488 fluorescence. The data was then analyzed using FlowJo to calculate the median fluorescence of BPD-PC and AF488. The increase in PD-L1 expression after treating the cells with mIFN-γ was calculated as shown in Equation 1 below and the binding specificity of iTPALs (17α) was calculated as shown in Equation 2 below.

Row | Molecule | Overall survival [1] | Increase in PD-L1 expression ([2]; AT84 head and neck cancer cells) | Increase in PD-L1 expression ([2]; BMFA3 PDAC cells) | Increase in PD-L1 expression ([2]; CT1BA5 PDAC cells) | Increase in PD-L1 expression ([2]; ID8 ovarian cancer cells) | Increase in PD-L1 expression ([2]; LLC lung cancer cells) | Increase in PD-L1 expression ([2]; MC38 colon cancer cells)
1 | FOLFIRINOX | 11.1 months | – | – | – | – | – | –
2 | B1 | – | 1.8 fold | 2.5 fold | 1.5 fold | 2.9 fold | 1.4 fold | 1.8 fold
